# *1 amine or outer side, *2 acyl side, *3 side chain or, on linkers, in order; H or OH if unused. Bridges are numbered along the chain shown (N, C = ends). Primed or numbered codes have the meaning given here. [ ]: non-standard residue; d: D form. The star is where a group is joined. mli = maleimide cyclization element: 3,4-maleimide inserted symmetrically, forming a vinyl thioether with each Cys sulfur; mli(Me)″ = N-methyl maleimide cyclization element, vinyl thioethers with both Cys, CN1C(=O)C([*:1])=C([*:2])C1=O; mli(DOTA-Eda) = 3,4-N-(DOTA-aminoethyl)-maleimide bridging two Cys S atoms as vinyl thioethers; Ttds = 1,13-diamino-4,7,10-trioxatridecan-succinamic acid, NCCCOCCOCCOCCCNC(=O)CCC(=O)*; mli(DOTA-Ttd) = 3,4-N-(DOTA-Ttd)-maleimide bridging two Cys S atoms as vinyl thioethers; mli(NODAGA-Ttd) = mli with NODAGA attached to the maleimide nitrogen via a Ttd linker; mli(N4Ac-Ttd) = mli with N4Ac attached to the maleimide nitrogen via a Ttd linker; mli(Me) = N-methyl maleimide cyclization element, CN1C(=O)C([*:1])=C([*:2])C1=O; N4Ac = 6-carboxy-1,4,8,11-tetraazaundecane, NCCNCC(CNCCN)C(=O)*; Buur = n-butylaminocarbonyl blocking group, CCCCNC(=O)*; DOTA = O=C(O)CN1CCN(CC(=O)O)CCN(CC(=O)*)CCN(CC(=O)O)CC1; NODAGA = O=C(O)CN1CCN(CC(=O)O)CCN(C(CCC(=O)*)C(=O)O)CC1; Maleimide(3,4-diyl) = O=C1NC(=O)C([*:2])=C1[*:1]; O2Oc = 3,6-dioxaoctanoic acid; 4Amb = NCc1ccc(C(=O)O)cc1; hCys = N[C@@H](CCS)C(=O)O; Nle = CCCC[C@H](N)C(=O)O; Hexanoyl = CCCCCC(=O)*
# Assays:
# [1] = biological target: Recombinant human FAP (R&D systems, #3715-SE) (human, UniProt Q12884 26-760); test: cell-based or functional assay
# [2] = biological target: T1, fibroblast activation protein (FAP) on FAP-expressing human WI-38 fibroblasts (human, UniProt Q12884 1-760); test: competitive FACS on WI-38 cells vs 3 nM Cy5-labeled probe; A = pIC50 >7.0
# T1 construct: Endogenous FAP on WI-38 cells (ECACC) in the FACS assay; also called human FAP
# Method: FAP-expressing human WI-38 fibroblasts (ECACC) were cultured in EMEM including 15% fetal bovine serum, 2 mM L-Glutamine and 1% Non-essential amino acids. Cells were detached with Accutase (Biolegend, #BLD-423201) and washed in FACS buffer (PBS including 1% FBS). Cells were diluted in FACS buffer to a final concentration of 100.000 cells per ml and 200 μl of the cell suspension are transferred to a u-shaped non-binding 96-well plate (Greiner). […] Cell were washed twice with FACS buffer and resuspended in 200 μl FACS buffer. Cells were analyzed in an Attune NxT flow cytometer. Median fluorescence intensities (Cy5 channel) was calculated by Attune NxT software and plotted against peptide concentrations. Four parameter logistic (4PL) curve fitting and pIC50 calculations were performed using ActivityBase software.
Binder,"pIC50 Category (Activity), FRET-based FAP protease activity assay [1]",pIC50 Category (FACS) [2]
Hexanoyl-CPPTQFCD-NH2 (linker 1-7 via mli(DOTA-Eda)) [compound Hex-[Cys(mli(DOTA-Eda))-Pro-Pro-Thr-Gln-Phe-Cys]-Asp-NH2 (2018)],> 7 pIC50,> 7 pIC50
Hexanoyl-CPPTQFCD-NH2 (linker 1-7 via mli) [compound Hex-[Cys(mli)-Pro-Pro-Thr-Gln-Phe-Cys]-Asp-NH2 (2001)],> 7 pIC50,> 7 pIC50
{DOTA-Ttds}-[Nle]CPPTQFCD-NH2 (linker 2-8 via mli(Me)″) [compound DOTA-Ttds-Nle-[Cys(mli(Me))-Pro-Pro-Thr-Gln-Phe-Cys]-Asp-NH2 (2016)],> 7 pIC50,> 7 pIC50
{DOTA-Ttds}-[Nle]CPPTQFCD-NH2 (linker 2-8 via mli) [compound DOTA-Ttds-Nle-[Cys(mli)-Pro-Pro-Thr-Gln-Phe-Cys]-Asp-NH2 (2005)],> 7 pIC50,> 7 pIC50
{DOTA}-[Nle]CPPTQFCD-NH2 (linker 2-8 via mli) [compound DOTA-Nle-[Cys(mli)-Pro-Pro-Thr-Gln-Phe-Cys]-Asp-NH2 (2003)],> 7 pIC50,> 7 pIC50
Hexanoyl-CPPTQFCD-NH2 (linker 1-7 via mli(NODAGA-Ttd)) [compound Hex-[Cys(mli(NODAGA-Ttd))-Pro-Pro-Thr-Gln-Phe-Cys]-Asp-NH2 (2025)],> 7 pIC50,> 7 pIC50
Hexanoyl-[hCys]PPTQF[hCys]D-NH2 (disulfide 1-7) [compound Hex-[Hcy-Pro-Pro-Thr-Gln-Phe-Hcy]-Asp-NH2 (2002)],> 7 pIC50,> 7 pIC50
Hexanoyl-CPPTQFCDK(NODAGA)-NH2 (linker 1-7 via mli) [compound Hex-[Cys(mli)-Pro-Pro-Thr-Gln-Phe-Cys]-Asp-Lys(NODAGA)-NH2 (2023)],> 7 pIC50,> 7 pIC50
Buur-CPPTQFCDK(DOTA)-NH2 (linker 1-7 via mli) [compound Buur-[Cys(mli)-Pro-Pro-Thr-Gln-Phe-Cys]-Asp-Lys(DOTA)-NH2 (2014)],> 7 pIC50,> 7 pIC50
{DOTA-O2Oc}-[Nle]CPPTQFCD-NH2 (linker 2-8 via mli) [compound DOTA-O2Oc-Nle-[Cys(mli)-Pro-Pro-Thr-Gln-Phe-Cys]-Asp-NH2 (2004)],> 7 pIC50,> 7 pIC50
"{DOTA-Ttds}-[Nle]CPPTEFCD[4Amb]R-NH2 (disulfide 2-8, By the running order it belongs to 1007) [compound DOTA-Ttds-Nle-[Cys-Pro-Pro-Thr-Glu-Phe-Cys]-Asp-Pamb-Arg-NH2 (1007)]",> 7 pIC50,> 7 pIC50
"{DOTA-Ttds}-[Nle]CPPTQFCD[4Amb]R-NH2 (linker 2-8 via Maleimide(3,4-diyl)) [compound DOTA-Ttds-Nle-[Cys(mli)-Pro-Pro-Thr-Gln-Phe-Cys]-Asp-Pamb-Arg-NH2 (2006)]",> 7 pIC50,> 7 pIC50
"{DOTA-Ttds}-[Nle]CPPTEFCDHFRD-NH2 (disulfide 2-8, By the running order it belongs to 1006) [compound DOTA-Ttds-Nle-[Cys-Pro-Pro-Thr-Glu-Phe-Cys]-Asp-His-Phe-Arg-Asp-NH2 (1006)]",> 7 pIC50,> 7 pIC50
Hexanoyl-CPPTQFCD-NH2 (linker 1-7 via mli(N4Ac-Ttd)) [compound Hex-[Cys(mli(N4Ac-Ttd))-Pro-Pro-Thr-Gln-Phe-Cys]-Asp-NH2 (2026)],> 7 pIC50,> 7 pIC50
Hexanoyl-CPPTQFCDK(DOTA)-NH2 (linker 1-7 via mli) [compound Hex-[Cys(mli)-Pro-Pro-Thr-Gln-Phe-Cys]-Asp-Lys(DOTA)-NH2 (2012)],> 7 pIC50,> 7 pIC50
"{DOTA-O2Oc}-[Nle]CPPTEFCDHFRD-NH2 (disulfide 2-8, By the running order it belongs to 1005) [compound DOTA-O2Oc-Nle-[Cys-Pro-Pro-Thr-Glu-Phe-Cys]-Asp-His-Phe-Arg-Asp-NH2 (1005)]",> 7 pIC50,> 7 pIC50
Hexanoyl-CPPTQFCDK(N4Ac)-NH2 (linker 1-7 via mli) [compound Hex-[Cys(mli)-Pro-Pro-Thr-Gln-Phe-Cys]-Asp-Lys(N4Ac)-NH2 (2024)],> 7 pIC50,> 7 pIC50
Hexanoyl-CPPTQFCDK(DOTA)-NH2 (linker 1-7 via mli(Me); SMILES CCCCCC(=O)N[C@H]1CSC2=C(SC[C@@H](C(=O)N[C@@H](CC(=O)O)C(=O)N[C@@H](CCCCNC(=O)CN3CCN(CC(=O)O)CCN(CC(=O)O)CCN(CC(=O)O)CC3)C(N)=O)NC(=O)[C@H](Cc3ccccc3)NC(=O)[C@H](CCC(N)=O)NC(=O)[C@H]([C@@H](C)O)NC(=O)[C@@H]3CCCN3C(=O)[C@@H]3CCCN3C1=O)C(=O)N(C)C2=O) [compound Hex-[Cys(mli(Me))-Pro-Pro-Thr-Gln-Phe-Cys]-Asp-Lys(DOTA)-NH2 (2015)],> 7 pIC50,> 7 pIC50
{DOTA-Ttds}-[Nle]CPPTQFCD-NH2 (disulfide 2-8) [compound DOTA-Ttds-Nle-[Cys-Pro-Pro-Thr-Gln-Phe-Cys]-Asp-NH2 (1008)],> 7 pIC50,> 7 pIC50
Hexanoyl-CPPTQFCD-NH2 (linker 1-7 via mli(DOTA-Ttd)) [compound Hex-[Cys(mli(DOTA-Ttd))-Pro-Pro-Thr-Gln-Phe-Cys]-Asp-NH2 (2017)],> 7 pIC50,> 7 pIC50

# From patent publication US20240115745A1 (3B PHARMACEUTICALS, published 2024)
